From paper PMC6715622

Assays:
Test in all cases: EMSA
[1] = test system: RsmA3 (Pseudomonas syringae pv. tomato DC3000)
[2] = test system: RsmA2 (Pseudomonas syringae pv. tomato DC3000)
[3] = test system: RsmA1 (Pseudomonas syringae pv. tomato DC3000)
[4] = test system: RsmA4 (Pseudomonas syringae pv. tomato DC3000)

Row | Substance | binding signal [1] [nM] | binding signal [2] [nM] | binding signal [3] [nM] | binding signal [4] [nM]
1 | rsmX1 | 40 | 40 | 320 | 640
2 | rsmX5 | 40 | 40 | 320 | 640
3 | rsmY | 40 | 40 | 320 | 640
4 | rsmZ | 40 | 40 | 320 | 640
